Measurements: the DeepSol protein solubility set

experiment: soluble on expression in E. coli; label from the status in PepcDB or PDB records

Row | Sequence | soluble on expression in E. coli
1 | GAMGSIQENLIFPMDNPKGIDGFTNLKEKDIATNENKLLRTITADKMIPAFLITPISSQIAGKVIAQVESDIFAHMGKAVLIPKGSKVIGYYSNNNKMGEYRLDIVWSRIITPHGINIMLTNAKGADIKGYNGLVGELIERNFQRYGVPLLLSTLTNGLLIGITSALNNRGNKEGATNFFGDYLLMQLMRQSGMGINQVVNQILRDKSKIAPIVVIREGSRVFISPNTDIFFPIPRENEVIAEFLK | soluble
2 | MGSDKIHHHHHHMPGRAGGCTRNTGAPVNRQDRAHAFLQRALEAQAALPVDHGLMRDLFAGTGDDSRLSLSEVGELVSRDPSLAVRILSLANSAYYGLQAEVTTVGRAVTVLGMREVRNLVLALGFSSVARMHPLPDRFCTAGYWLHQLRVAAFCRIIAAGTEDLDPEMLYTAGLLHDIGKLFIAALAPDDWLGIRRLARQESLPDCKAEERWWGLDHALAGARVLAYWQLPAALTEPISWHHGPHFADAAHARGAGAVQLADALLLAFERGTPPPAAALQLLKEYTADAGRLQMALEAQFAGERIGQLAALLG | not soluble
3 | MAHHHHHHSLNVLSVSSEIYPLIKTGGLADVVGALPIALEAHGVRTRTLIPGYPAVKAAVTDPVKCFEFTDLLGEKADLLEVQHERLDLLILDAPAYYERSGGPYLGQTGKDYPDNWKRFAALSLAAARIGAGVLPGWRPDMVHAHDWQAAMTPVYMRYAETPEIPSLLTIHNIAFQGQFGANIFSKLALPAHAFGMEGIEYYNDVSFLKGGLQTATALSTVSPSYAEEILTAEFGMGLEGVIGSRAHVLHGIVNGIDADVWNPATDHLIHDNYSAANLKNRALNKKAVAEHFRIDDDGSPLFCVISRLTWQKGIDLMAEAVDEIVSLGGRLVVLGAGDVALEGALLAAASRHHGRVGVAIGYNEPLSHLMQAGCDAIIIPSRFEPCGLTQLYALRYGCIPVVARTGGLADTVIDANHAALASKAATGVQFSPVTLDGLKQAIRRTVRYYHDPKLWTQMQKLGMKSDVSWEKSAGLYAALYSQLISKGHEG | not soluble
4 | MAETIISLLSPTLDIKSPYYFNPDYLHQFNMHTNTAIDKLSEAKDNYAIWKLRFFDLLQFTNKTGFIDGTLPKPDPSSPYYEPWKQCNAIVLHWLSNTVTDTLQNHVLQAETVHKAWEDLRRIFVPCIDFKIYELRQRLATLRQGGDSVAEYFGKLSKAWLELKAYDPVQECKCGGCDCESEKRATEAREKEQRYAFLMGLNKEFDYVKMKVMHKKIPPSVYQAYEMVVYSEAMMKWKMGGRI | soluble
5 | PKRSDARLPQVAAFSYVEDLLQAGVHVHLYTNGFLHSKLIMVDSQVASIGSTNMDFRSLENNFEFNGIIYDEPTVHRLEAIFFEDLLQSEPLDLKRWRKRSRIKKFSESFVRLFSPLL | not soluble
6 | MKALNREVIEYFKEHVNPGFLEYRKSVTAGGDYGAVEWQAGSLNTLVDTQGQEFIDCLGGFGIFNVGHRNPVVVSAVQNQLAKQPLHSQELLDPLRAMLAKTLAALTPGKLKYSFFCNSGTESVEAALKLAKAYQSPRGKFTFIATSGAFHGKSLGALSATAKSTFRKPFMPLLPGFRHVPFGNIEAMRTALNECKKTGDDVAAVILEPIQGEGGVILPPPGYLTAVRKLCDEFGALMILDEVQTGMGRTGKMFACEHENVQPDILCLAKALGGGVMPIGATIATEEVFSVLFDNPFLHTTTFGGNPLACAAALATINVLLEQNLPAQAEQKGDMLLDGFRQLAREYPDLVQEARGKGMLMAIEFVDNEIGYNFASEMFRQRVLVAGTLNNAKTIRIEPPLTLTIEQCELVIKAARKALAAMRVSVEEA | not soluble
7 | MGSDKIHHHHHHMQTLPTPTTSSNTANQSTFDTTIKRRKTRPVKVGNVTIGGGYPVVVQSMINEDTLDIDGSVAAIRRLHEIGCEIVRVTVPSIAHAVALAEIKQKLITTYQDVPIVADVHHNGMKIALEVAKHIEKVRINPGLYVFEKPNTNRTEYTQAEFEEIGEKIRETLAPLVITLRDQGKAMRIGVNHGSLAERMLFTYGDTPEGMVESALEFIRICESLDFRNIVISMKASRVPVMVAAYRLMAKRMDDLGMDYPLHLGVTEAGDGEYGRIKSTAGIATLLADGIGDTIRVSLTEAPEKEIPVCYSILQALGLRKTMVEYVACPSCGRTLFNLEEVLHKVRESTKHLTGLDIAVMGCIVNGPGEMADADYGYVGKTPGYISLYRGREEIKKVPEDKGVEELINLIKADGRWVDP | not soluble
8 | MRVDVVSRDIIKPSSPTPNHLKKFKLSLLEQLGPTIFGPMVFFYSANNSIKPTEQLQMLKKSLSETLTHFYPLAGRLKGNISIDCNDSGADFLEARVNSPLSNLLLEPSSDSLQQLIPTSVDSIETRTRLLLAQASFFECGSMSIGVCISHKLADATSIGLFMKSWAAISSRGSIKTIGAPVFDTVKIFPPGNFSETSPAPVVEPEIMMNQTLSKRFIFDSSSIQALQAKASSFEVNQPTRVEAVSALIWKSAMKATRTVSGTSKPSILANSVSLRSRVSPPFTKNSIGNLVSYFAAKAEEGINQTKLQTLVSKIRKAKQRFRDIHIPKLVGNPNATEIICSYQKEAGDMIASGDFDFYIFSSACRFGLYETDFGWGKPVWVGFPSVRQKNIVTLLDTKEAGGIEAWVNLNEQEMNLFEQDRELLQFASLNPSVIQPFLHVL | soluble
9 | MGSDKIHHHHHHAMSSCGSTKEAASLSSLNGEWNIIEVNGSAIVPAENQELPFIGFDTATGKVYGNSGCNRMMGSIDLNSKPGTIDMSRLGSTRMACPDMTTEQNVLNALGQVKSYKKLGKHNMALCNASNRPVVVLQKKASDVKLSALNGEWKIEEVNGEAIPSGMEKQPFINFDVRKKSIHGNAGCNLINGGFETDKENPRSISFPNVISTMMACPDMEVEGKVMKAINEVKSFDVLSGGGIGFYSADGTLVMVLVKK | not soluble
10 | MKITHCKLKKEVQKEPLRSFVPEVTARSAADILGIHPDSAALFYRKIRTVANHRLALAADGVFEGPAGPGGSYFGGRRKGRRGRGAAGKAVVFGIPKRNGRAYTVAADNAEPETLPPAVKKKIMPDGIVYADSPGSRGKLDAGGFTRCRINRSKEFADRRNHINGIGDFWNQAKRALRKYNGIDRKPFPPFLRECEFRLNFGTPSRQLKILRDRCGILEHHHHHH | not soluble
11 | MGSDKIHHHHHHMKIKVKLPDGKEKEYDRGITPAEIAKELGIKKAIGAVVNGELWDLKRPIENDCELRLVTLEDPEAPEFYRHTMAHILAQAVMRLYGKENVKLGIGPTIENGFYYDFDIKNGRLTEEDLPKIEQEMKKIIKENLPIERKEISKEEARELFRDQPYKLELIEEIEGNRVTIYRQGEFVDLCRGPHLPSTGIVKHFKLLSVSGAYWRGSEKNPMLTRVYGTAFAKKEDLDNYLKFLEEAQRRDHRKLGPQLELFMLNTEYAPGMPFFLPKGVVVLNELMKFSRELHRERGYQEIFTPLIMNEQLWKISGHWDHYAENMYFIEKDEERYAVKPMNCPGHILVYKSRTVSYRDLPLRFFEFGRVHRYERSGVLHGLMRVRSFTQDDAHIFCTPDQIEEEILGVLDLINTIYSQFGFTYRVELSTMPEDHMGDEAIWEKATTALKNALERAGLSYKVNEGEGAFYGPKIDFHIRDSIGREWQCATIQLDFMMPEKFNVTYIGPDNKEHRAVMIHRAIYGSLERFFGILIEHFAGAFPTWLAPIQVAVIPISEKHNDGAEKVARRISQEGFRVFFDNRRETLGYRIRQAQTQKIPYMIIIGDKELESGKISVRTRTGKEIKDVDPEHFVETLRNEVLSRKLELSMEG | not soluble
12 | MDILQTRYFELSNPTTGEHKFYELTLHEDGTLISRYGRIGANGQNKTQQFNSVEAMLKAADKTTAEKLNKGYQVANAGETAAQETRHQRILRNVREFYELISNGDSKLAQRCSVEFKAFIEDEDNKEEYEDQDNELINNGIREAADWELVFFVDWKDTESMLDVLDTLCSNLNIDIVFDWGCDVPEDELKVGQIMLLAHEQLQQQGFALWHWDTGHDAYLGWIARMAYQTQIASCVQALDLDAAYPNPEKLTLEHHHHHH | soluble
13 | MGGFGLKYRPVPIKRVLPGSIAQESDLQEGDLILSINGQKISDIFDYRFLIADENLVLEVQKKNGEIWEIEIEKDEYEDLGIEFENLMIDDTKSCRNKCIFCFIDQLPKGMRETLYFKDDDSRLSFFMGNYVTLTNMSYDDIDRIIKYKMSPINVSVHTSNPELRVYMLRNKTAGDVMDKIKRLIEGGIKVNAQIVLVRGVNDGKELDRTLKDLSALYPGLNSISVVPVGITKYREGLYELKPFDMESSREVIKQVEAWQMELLSKYGSRIVFIADEFYIMAGLEIPDYCVYEDFPQIENGVGLVAMLKKEFDDYFEELELKLENKREVSIATGVSSYKYIKEMIDILENKYKNLYVHVYKIKNNFFGENVTVTGLLTGQDIERQLSGKNLGRELLLSESMLKSGERVFLDDYTVEMLEDKLKTKITIVRNNGKDFIEKVLGIVL | soluble
14 | SNATGLGELKISDTICAQNAVEALPALSVDEPTVTMTFQVNTSPFAGKEGKFVTSRNILERLEKELVHNVALRVEQTDDPDKFRVSGRGELHLSILIENMRREGFELAVSRPEVIIKEEDGQLMEPFETVTIDVMEEHQGGIMENIGLRKGELKDMAPDGKGRVRMDFIMPSRGLIGFQTEFMTLTSGSGLLYHTFDHYGPHKGGNIGQRVNGVLIANAAGKALTNALFNLQERGRLFIGHGVEVYEGMVIGIHSRDNDLTVNALKGKQLTNVRASGTDDAQVLTPPIVMTLEQALEFIDDDELVEVTPESIRIRKKFLTESDRKRASRSAK | soluble
15 | MSAYKQANRLIHEKSPYLLQHAYNPVDWYPWCDEAFEKAKRENKPIFLSIGYSTCHWCHVMESESFEDEEVAEILNKNFVSIKVDREERPDIDSIYMTACQALTGHGGWPLTIIMTPDKKPFFAGTYFPKKDRMGMPGLISILKSVHNTWVNEKDSLAKYSSKVVSVISESIDDDYYYSVDEITEDIFEDAFSQFKYDFDNIYGGFGNAPKFPMPHNLYFLLRYWHKAKEEYALVMVEKTLDSMYSGGIYDHIGFGFCRYSTDEKWLVPHFEKMLYDNALLAIAYLETYQATKNKKYADIAKEIFTYVLRDMTSPEGGFYSAEDADSEGEEGKFYIWSPTEIKEVLGESDGEKFCKYYNITEEGNFEGLNIPNLINSTIPDEDKEFVELCRKKLFDHREKRVHPHKDDKILTAWNGLMIAALAIGGRVLGIEKYTLAAEKASEFIFSKLVRPDGRLLARYRDGEAAFLAYLDDYAFLIWALIELYETTYKPMYLKKAMELTNDMIKYFWDNKKGGLFIYGSDSEQLITRPKEIYDGAIPSGNSVAALNFLRLSRLTGQQELEEKAHQMFALFGSKIDSMPQGYAFFLTAMLFSKSKSNEVVLVGSNEKDTQNMLSILSEDFRPFTTSILYSEEHKDLKELIPFIDNYTTIENKPTAYVCENFVCHEPITDGALLREKLNR | soluble
16 | MKTSSYLLKAGVDYPTNWDEFVDWFHDEQSCTSYLYALRWPNGFICPSCSSHQSPYQLSNGKLKCHACRFQCSVTSSTLFDKTRTPMKSWFAAVWFITNQKNGVSALGVQRLLGLGSYQTAWSLMHKLRYAMVDPERDKLSGIVEVDETLIGGVIPKSSIKNQQGKRKAIVLVAVELLSPSGFGRIRLRQVESATKEHIHQFIQDVIEPGSTICSDGSQAYKQIDKKGYKHNRMVHLGSSVPAHETMAGVHRVSSLCKRWLLGTYQGAVKAKQLDYYLDEFTFRFNRRKSDSRGLLFYRLLEQAVRSKPITYQSIKNRLEHHHHHH | not soluble
17 | MAHHHHHHMLSEEEQATLLKYYSTVKLHETQMDQLAQAYWAATREERGEIAKVYAHTFVDPTFVQRLIFFHDYRMSLTAAGAGLSSSTGAAVGTGSSFAGQQSGSESANSPLMAGPPSSFMAESPTTAANHAPRRTHAQHLLRSTIQEHFPKLTGPGPYALQFGCVQSEKEREEVIELYSSQFLHPDPPELHRIVALPSSFSTRTRKRISGSYSWYLRCLATQELVCAVTVTVHQQETIRFAEMPLFATGVGYKKNGFGRLLNAALLAWCAEVGLEFIMISADVQAIPFWRHLGYRAMTRGEKNRIDFFYQHDCCKFKGAETMIGYCNVDRGNGSLSGGVGRRAFHSGGSTEVLHRSVRQVLAQLPRFVVEGPAKLPTE | soluble
